Legend:
Assay type in all cases: cell-based
RSMC [1] = experiment: Chemotaxis assay, modified Boyden chambers, RSMC
Description: Chemotaxis assays were performed using well-known protocols (Degryse et al., 1999, Blood, 94: 649-662).
Modified Boyden chambers were used with filters having 0.5 Am pore size (Corning, Acton, Mass.) and. treated with collagen I (100 Ug/ml in 0.5 M acetic acid) e fibronectin (10 IIg/ml) (Roche). RSMC cells (kind gift of Dr. Marco Bertulli, Bayer Research Laboratories, Milan) were cultured in DMEM serum-free and a sample of 20.000-40.000 cells was added to the upper well of Boyden. chamber. The molecules to be tested were diluted in the same serum-free medium and added to the lower well.
Different HMGB1 preparations were used: HMGB1 purified from calf thymus (kind gift of J. Bernues, C.S.I.C., Barcelona, Spain), E. coli expressed […], and a lightly modified HMGB1 form (containing EAEAYVEF aminoacids bound to the Nterminus) produced in yeast Pichia pastoris (Mistry et al., 1997, Biotechniques, 22: 718-729).
If necessary, the polyclonal rabbit anti-HMGB1 (Pharmingen B D, Torrey Pines, Calif.), the pertussis toxin (PT) from Bordetella pertussis (kind gift of Dr. M. G. Pizza, I.R.I.S., Siena) or the inhibitors were added in both wells.
Overnight cell migration was allowed at 37 C, then cells remaining on the upper surface of filters were scraped off and filters were fixed in methanol and stained in a solution of 10% crystal violet in 20% methanol. All experiments were performed at least twice in triplicate.
Results, as shown in FIGS. 1-A, 1-B, 1-C, 1-D, are the mean±SD of the number of cells counted in 10 high power fields per filter and expressed as fold over control. To random cell migration (i.e., migration in the absence of chemoattractant) was given the arbitrary value of 100%.
Statistical analysis was performed using Student's t test for pairwise comparisons of treatments, or an ANOVA model for the evaluation of treatments with increasing doses of a reagent.
Knowing that many chemoattractants act via membrane receptors associated to heterotrimeric GTP binding proteins (G proteins), whether G proteins could be implicated in HMGB1 signaling was tested. […] RSMC were pre-treated with PT or with mPT (50 ng/ml) for 6 hours, thus stimulated with HMGB1 (100 ng/ml), Box A or Box B (10 ng/ml) for 30 minutes.
Chemotaxis assays were performed as previously described. The data represent the mean±SD and the value of 100% corresponds to basal migration in the absence of any stimulator.

RSMC [2] = experiment: Immunofluorescence assay of RSMC morphology and actin cytoskeleton organization
Description: Samples of 15.000-20.000 RSMC, 20-40% confluence, 2 were seeded on glass coverslips in 2 cm wells and cultured for 24 hours in DMEM plus 10% FCS, washed with PBS, and cultured for another 24 hours in DMEM without FCS. RSMC were stimulated with HMGB1 100 ng/ml for increasing time intervals, from 5 to 120 minutes at 37 C. After stimulation, RSMC were fixed for 20 minutes at room temperature with a solution of 3% paraformaldehyde, 2% sucrose in PBS, pH 7.5, followed by three washes with PBS-BSA 0.2%. Cells were permeabilized with 20 mM Hepes pH 7.4, 300 mM saccharose, 50 mM NaCl, 3 mM MgCl2, 0.5% (v/v) Triton X-100 for 3 minutes at 4 C, and washed again three times with PBS-BSA 0.2%. Then, RSMC were incubated with PBS-BSA 2% for. 15 minutes at 37 C, with primary antibodies for 30 minutes at 37 C, washed three times with PBS-BSA 0.2%, and further incubated with PBS-BSA 2% for 15 minutes. At the end, cells were stained with secondary antibodies and/or phalloidin conjugated with rodamin for visualization of filamentous actin; in some cases, DAPI (4′,6-diamidino-2-phenilindolo, Roche) was used to label the nucleus.
After all the subsequent incubation, coverslips were washed three times with PBS-BSA 0.2%, twice with distilled water, mounted with 20% Mowiol in PBS and analysed on a Axiophot microscope (Carl Zeiss).
Fluorescence photographs were taken either on T-Max 400 or EPH P1600X film (Eastman Kodak) using Zeiss 40 and 100 neofluar lenses.
In certain experiments cells were overnight pretreated with antibodies or PT or inhibitors.
Finally, to determine whether the observed effects of HMGB1 on RSMC actually reflect a dynamic transition from resting to motile states, the proportion of cells in each different state was quantified.

phosphorylated ERK1/2 = experiment: ERK1/2 phosphorylation and nuclear translocation in RSMC (immunostaining); design: inhibition of HMGB1-induced ERK phosphorylation and nuclear translocation: dose or concentration left out as unconfirmed
Description: Afterwards, whether the HMGB1-induced signaling involves the MAP kinase pathway, was investigated; in fact, it is known that these proteins are activated by RAGE, and they have a direct role in the regulation of the intracellular motility machinery. RSMC were pretreated with PD98059 ([…]) for one hour or were not pre-treated, stimulated for 30 minutes with HMGB1 from calf thymus (100 ng/ml) and stained with specific antibodies against phosphorylated ERK1/2 (New England Biolabs, Beverly, Mass.) and DAPI. A separate sample of cells was stained with TRITC-phalloidin to visualize the reorganization of cytoskeleton. […] Moreover, PD98059, the selective inhibitor of MEK, the upstream regulator of ERK, inhibits HMGB1-induced ERK phosphorylation and. nuclear translocation, as well as RSMC migration and cytoskeleton reorganization.

[3] = system: Mouse embryonic fibroblasts; experiment: Chemotaxis assay on fibroblasts, modified Boyden chambers
Description: Chemotaxis assays were performed using well-know protocols (Degryse et al., 1999, Blood, 94:64. 9-662). Modified Boyden chambers were used with filters having 0.5 ym pore size (Corning, Acton, Mass.) and treated with collagen I (100 pg/ml in 0.5 M acetic acid) and fibronectin (10 IIg/ml) (Roche). Mouse embryonic fibroblasts were cultured following well-known protocols (Calogero et al., 1999, Nat. Genet., 22: 276280) and after 24 hours of serum starvation, a sample of 20.000-40.000 cells was added to the upper well of Boyden. chamber. E. Coli expressed recombinant-HMGB1 was diluted in the same serum-free medium and added to the lower well. Anti-RAGE antibodies (1000 ng/ml) (kind gift of Dr. A. M. Schimdt, Columbia University, NY) were added in both wells.
Overnight cell migration. was allowed at 37 C, then cells remaining on the upper surface of filters were scraped off and filters were fixed in methanol and stained in a solution of 10% crystal violet in 20% methanol. All experiments were performed at least twice in triplicate.
Results, as shown in FIG. 10 are the mean W SD of the number of cells counted in 10 high power fields per filter and expressed as fold over untreated control. To random cell migration (i.e. migration in absence of chemoattractant) was given the arbitrary value of 100%.
Statistical analysis was performed using an ANOVA model for the evaluation of treatments with increasing doses of a reagent. […] Anti RAGE antibodies (1000 ng/ml) totally block the migratory response (right side of the graphic of FIG. 10) showing that this is specifically due to HMGB1.

[4] = HMGB1 100 ng/ml, one hour after stimulation

COc1cccc(-c2cc(=O)c3ccccc3o2)c1N [PD98059, reference compound]
inhibition of HMGB1-induced RSMC migration (RSMC [1]; inhibitor in both wells or pre-treatment, HMGB1 as chemoattractant): inhibits
inhibition of HMGB1-induced cytoskeletal reorganization and morphological change of RSMC (RSMC [2]; cells pretreated with antibodies, PT or inhibitors): inhibits
inhibition of HMGB1-induced ERK phosphorylation and nuclear translocation (phosphorylated ERK1/2; pretreated with PD98059 for one hour): inhibits

B1: E. Coli expressed recombinant-HMGB1: full-length HMGB1 expressed in E. Coli transformed with pT7-7-rHMGlcm plasmid (protein, UniProt P09429 1-215, looked up)
chain: MGKGDPKKPRGKMSSYAFFVQTCREEHKKKHPDASVNFSEFSKKCSERWKTMSAKEKGKFEDMAKADKARYEREMKTYIPPKGETKKKFKDPNAPKRPPSAFFLFCSEYRPKIKGEHPGLSIGDVAKKLGEMWNNTAADDKQPYEKKAAKLKEKYEKDIAAYRAKGKPDAAKKGVVKAEKSKKKKEEEEDEEDEEDEEEEEDEEDEDEEEDDDDE
modifications: full-length expressed in E. coli
notes: full-length HMGB1 expressed in E. Coli transformed with pT7-7-rHMGlcm plasmid
dose giving maximal migratory response of fibroblasts [3]: 100 ng/mL
migratory response of fibroblasts at higher doses ([3]; 1000 ng/ml): lower than the control
lowest dose stimulating fibroblasts migration ([3]; concentration-dependent): 0.1 ng/mL

B2: HMGB1: HMGB1 protein, 25-kD, 215 amino acids, two HMG boxes and acidic COOH terminus; preparation not specified at the place (protein, UniProt P09429 1-215, looked up)
High mobility group protein B1: B1 chain
chemotactic effect on RSMC (in words) (RSMC [1]; overnight migration, serum-free medium): comparable in amplitude to the effects of the well characterised attractants fMLP and bFGF
proportion of cells in state 2 (RSMC [2]; HMGB1 100 ng/ml, after 15-30 minutes): 80%
proportion of cells in state 1 (RSMC [2]; [4]): 60%
proportion of cells in state 2 (RSMC [2]; [4]): 40%
change of RSMC morphology and cytoskeleton organization (RSMC [2]; HMGB1 100 ng/ml, within 15-30 minutes): complete change of morphology and cytoskeleton organization
proportion of cells in state 2 (RSMC [2]; HMGB1 100 ng/ml, within 5 minutes after stimulation): 60%
activation and nuclear translocation of ERK1/2 in RSMC (phosphorylated ERK1/2; HMGB1 from calf thymus 100 ng/ml, within 30 minutes): induces the activation of ERK1/2 proteins

B3: HMGB1 from calf thymus: HMGB1 purified from calf thymus (protein, UniProt P10103 2-215, looked up)
High mobility group protein B1: GKGDPKKPRGKMSSYAFFVQTCREEHKKKHPDASVNFSEFSKKCSERWKTMSAKEKGKFEDMAKADKARYEREMKTYIPPKGETKKKFKDPNAPKRPPSAFFLFCSEYRPKIKGEHPGLSIGDVAKKLGEMWNNTAADDKQPYEKKAAKLKEKYEKDIAAYRAKGKPDAAKKGVVKAEKSKKKKEEEEDEEDEEDEEEEEDEEDEEEEEDDDDE
maximal migratory response of RSMC (RSMC [1]; at 100 ng/ml, random cell migration = 100%): 2.5 fold
lowest dose stimulating migration of RSMC (RSMC [1]; concentration-dependent, overnight migration): 0.1 ng/mL
